Source: patent US12030916 (AUCTUS BIOLOGICS, dated 2024)

Biological target: T1, RPtag small tight peptide (Nd2,P5A,E18A) with a C-terminal GGC sequence (C-terminal Cys reacted with maleimide-activated plate (immobilised))
T1 construct: also called RPtag small peptide; bait peptide
T1 peptide: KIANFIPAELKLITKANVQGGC
Test: capture ELISA, peptide immobilised on maleimide plate
Procedure: White Pierce™ Maleimide Activated Plates were washed 4× with 200 μL 50 mM phosphate pH 7.4, 150 mM NaCl, and reacted with 100 μL of RPtag small peptide that binds with high affinity to RPtag large. Specifically, RPtag small tight peptide (Nd2,P5A,E18A; […]; SEQ ID NO:5) with a C-terminal GGC sequence ([…] (SEQ ID NO:5)+GGC) dissolved in 50 mM phosphate pH 7.4, 150 mM NaCl, 10 mM EDTA overnight at room temperature as bait. Plates were then washed 4× in 50 mM phosphate pH 7.4, 150 mM NaCl, and blocked for 1 hour at room temperature with 10 mM L-Cys in the same buffer, washed 4× as before, and blocked for 1 hour at room temperature with 50 mM phosphate pH 7.4, 150 mM NaCl, 1% BSA, 0.05% Tween20 (blocking buffer).
Plates were washed 4× as before, serum samples were diluted 1:100 in blocking buffer, and then serum was incubated with the baited plates for 2 hours at room temperature. […]
To test for intact N-termini, wells were then washed 4× as before, and incubated with a 1:10,000 dilution of HRP-conjugated mouse anti-FLAG antibody (M2 clone, 1 mg/mL stock) from Sigma-Aldrich for 1 hour at room temperature. Samples were then washed 4× as before, and assayed using SuperSignal™ ELISA Femto Substrate measured using a Molecular Devices SpectraMax i3 plate reader in luminescence mode. […]

B1: RPtag large-B12 construct (RPtag large with 3xFLAG tag, proline and Cys residue, B12-maleimide conjugated, 8xHis tag removed by TEV protease) (designed binder)
chain: KTIGLVISTLNNPFFVTLKNGAEEKAKELGYKIIVEDSQNDSSKELSNVEDLIQQKVDVLLINPVDSDAVVTAIKEANSKNIPVITIDRSANGGDVVSHIASDNVKGGEMAAEFIAKALKGKGNVVELEGIPGASAARDRGKGFDEAIAKYPDIKIVAKQAADFDRSKGLSVMENILQAQPKIDAVFAQNDEMALGAIKAIEAANRQGIIVVGFDGTEDALKAIKEGKMAATIAQQPALMGSLGVEMADKYLK
modifications: B12-maleimide covalently attached at the added Cys residue (47% labeling efficiency; the preparation is a mixture of free RPtag large and B12-RPtag large conjugate); position of the Cys not stated
notes: Construct expressed with N-terminal 8xHis tag and TEV site, both removed by TEV protease before use; In the assay it stood either in mouse serum after oral gavage or as a standard of known concentration; Formulated with 1 M D-ribose for dosing; also called B12-RPtag large conjugate; B12-RPtag conjugate; not shown: N-terminal leader left after TEV cleavage: 3xFLAG tag, a proline after it and a Cys …
B1: binds.
